From patent US20210087522

Legend:
[1] = molecular target: T1, AFACP, ACP of the FAS from Anabaena
T1 chain: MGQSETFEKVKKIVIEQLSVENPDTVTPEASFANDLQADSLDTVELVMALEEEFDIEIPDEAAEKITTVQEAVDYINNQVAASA

[2] = molecular target: T2, APACP, ACP of the glycolipid PKS in Anabaena
T2 chain: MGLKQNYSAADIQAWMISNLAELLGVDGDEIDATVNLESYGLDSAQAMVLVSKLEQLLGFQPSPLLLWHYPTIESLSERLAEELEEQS

[3] = molecular target: T3, APNPCP, CP of an uncharacterized NRP/PK gene cluster from Anabaena
T3 chain: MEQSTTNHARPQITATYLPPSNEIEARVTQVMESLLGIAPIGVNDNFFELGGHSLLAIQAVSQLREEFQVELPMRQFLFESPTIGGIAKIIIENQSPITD

[4] = molecular target: AprACP, ACP of the apratoxin (PK/NRP) gene cluster in Lyngbya sp.
[5] = molecular target: T4, FNPCP, CP of an uncharacterized NRP gene cluster from Fischerella
T4 chain: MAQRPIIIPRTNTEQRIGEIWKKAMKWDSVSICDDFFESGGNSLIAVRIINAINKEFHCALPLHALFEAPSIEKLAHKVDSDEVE

[6] = molecular target: T5, FNsACP, homolog of ArCPNp from Fischerella
T5 chain: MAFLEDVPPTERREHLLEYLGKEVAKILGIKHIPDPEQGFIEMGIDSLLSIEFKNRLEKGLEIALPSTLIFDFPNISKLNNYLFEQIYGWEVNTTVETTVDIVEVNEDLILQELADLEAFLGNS

[7] = molecular target: T6, FisPCP, PCP of the shinorine gene cluster from Fischerella
T6 chain: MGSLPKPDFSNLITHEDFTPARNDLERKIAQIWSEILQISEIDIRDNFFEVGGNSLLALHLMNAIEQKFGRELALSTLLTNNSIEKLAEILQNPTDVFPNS

[8] = molecular target: T7, MACP, CP of an uncharacterized NRP/PK gene cluster from M. aeruginosa NIES843
T7 chain: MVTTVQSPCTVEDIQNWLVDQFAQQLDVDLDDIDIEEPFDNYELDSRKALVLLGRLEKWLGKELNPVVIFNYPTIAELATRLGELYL

[9] = molecular target: T8, SFACP, ACP of the FAS from Synechocystis
T8 chain: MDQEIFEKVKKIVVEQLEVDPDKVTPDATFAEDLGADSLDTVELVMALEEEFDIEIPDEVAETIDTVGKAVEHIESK

[10] = molecular target: ScACP, ACP of a putative concanamycin gene cluster from Streptomyces coelicolor A(3)2
[11] = molecular target: T9, SsPCP, PCP of a thaxtomin cluster from Streptomyces scabiei 87.22
T9 chain: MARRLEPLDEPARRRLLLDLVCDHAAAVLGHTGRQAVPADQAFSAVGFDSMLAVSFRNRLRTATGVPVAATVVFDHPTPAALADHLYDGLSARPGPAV

B1: APPT, Sfp-like phosphopantetheinyl transferase (PPTase) from Anabaena sp. PCC7120 (protein)
chain: MLQHTWLPKPPNLTLLSDEVHLWRIPLDQPESQLQDLAATLSSDELARANRFYFPEHRRRFTAGRGILRSILGGYLGVEPGQVKFDYESRGKPILGDRFAESGLLFNLSHSQNLALCAVNYTRQIGIDLEYLRPTSDLESLAKRFFLPREYELLRSLPDEQKQKIFFRYWTCKEAYLKATGDGIAKLEEIEIALTPTEPAKLQTAPAWSLLELVPDDNCVAAVAVAGFGWQPKFWHY
**Q.** For B1, which Km [1] is on record?
**A.** The Km was 6.8 µM.

**Q.** And the kcat [1]?
**A.** The kcat was 11.7 min⁻¹.

**Q.** And the kcat/Km [1]?
**A.** Its kcat/Km is 1.7 µM⁻¹ min⁻¹.

**Q.** And the “phosphopantetheinylation of CP (apo to holo), LC-MS” value (shortened to “phosphopantetheinylation of CP”) [1]?
**A.** Its value is “APPT, AvPPT, MPPT and Sfp functionalized all substrates”.

**Q.** What about the Km [2] of the same protein?
**A.** The Km was 10 µM.

**Q.** What about the kcat [2] of the same protein?
**A.** Its kcat is 17 min⁻¹.

**Q.** What about the kcat/Km [2] of the same protein?
**A.** The kcat/Km was 1.6 µM⁻¹ min⁻¹.

**Q.** What about the “phosphopantetheinylation of CP” value [2] of the same protein?
**A.** Its value is “APPT, AvPPT, MPPT and Sfp functionalized all substrates”.

**Q.** And the Km [3]?
**A.** Its Km is 1.6 µM.

**Q.** What about the kcat [3] of the same protein?
**A.** The kcat was 1 min⁻¹.

**Q.** What about the kcat/Km [3] of the same protein?
**A.** The kcat/Km was 0.6 µM⁻¹ min⁻¹.

**Q.** And the “phosphopantetheinylation of CP” value [3]?
**A.** The value was “APPT, AvPPT, MPPT and Sfp functionalized all substrates”.

**Q.** And the Km [4]?
**A.** Its Km is 7.8 µM.

**Q.** What about the kcat [4] of the same protein?
**A.** Its kcat is 14.3 min⁻¹.

**Q.** And the kcat/Km [4]?
**A.** The kcat/Km was 1.8 µM⁻¹ min⁻¹.

**Q.** And the “phosphopantetheinylation of CP” value [4]?
**A.** Its value is “APPT, AvPPT, MPPT and Sfp functionalized all substrates”.

**Q.** What about the Km [5] of the same protein?
**A.** Its Km is 12.1 µM.

**Q.** And the kcat [5]?
**A.** The kcat was 12.2 min⁻¹.

**Q.** What about the kcat/Km [5] of the same protein?
**A.** Its kcat/Km is 1 µM⁻¹ min⁻¹.

**Q.** What about the “phosphopantetheinylation of CP” value [5] of the same protein?
**A.** Its value is “APPT, AvPPT, MPPT and Sfp functionalized all substrates”.

**Q.** And the Km [6]?
**A.** The Km was 8.4 µM.

**Q.** And the kcat [6]?
**A.** Its kcat is 2.2 min⁻¹.

**Q.** And the kcat/Km [6]?
**A.** Its kcat/Km is 0.3 µM⁻¹ min⁻¹.

**Q.** What about the “phosphopantetheinylation of CP” value [6] of the same protein?
**A.** Its value is “APPT, AvPPT, MPPT and Sfp functionalized all substrates”.

**Q.** What about the Km [7] of the same protein?
**A.** Its Km is 7.1 µM.

**Q.** What about the kcat [7] of the same protein?
**A.** The kcat was 2.3 min⁻¹.

**Q.** What about the kcat/Km [7] of the same protein?
**A.** The kcat/Km was 0.3 µM⁻¹ min⁻¹.

**Q.** And the “phosphopantetheinylation of CP” value [7]?
**A.** The value was “APPT, AvPPT, MPPT and Sfp functionalized all substrates”.

**Q.** What about the Km [8] of the same protein?
**A.** The Km was 7.9 µM.

**Q.** And the kcat [8]?
**A.** The kcat was 3.7 min⁻¹.

**Q.** And the kcat/Km [8]?
**A.** The kcat/Km was 0.5 µM⁻¹ min⁻¹.

**Q.** And the “phosphopantetheinylation of CP” value [8]?
**A.** Its value is “APPT, AvPPT, MPPT and Sfp functionalized all substrates”.

**Q.** And the Km [9]?
**A.** Its Km is 2.8 µM.

**Q.** And the kcat [9]?
**A.** Its kcat is 1.6 min⁻¹.

**Q.** What about the kcat/Km [9] of the same protein?
**A.** The kcat/Km was 0.6 µM⁻¹ min⁻¹.

**Q.** And the “phosphopantetheinylation of CP” value [9]?
**A.** Its value is “APPT, AvPPT, MPPT and Sfp functionalized all substrates”.

**Q.** And the Km [10]?
**A.** The Km was 14.1 µM.

**Q.** What about the kcat [10] of the same protein?
**A.** The kcat was 5.4 min⁻¹.

**Q.** And the kcat/Km [10]?
**A.** Its kcat/Km is 0.4 µM⁻¹ min⁻¹.

**Q.** What about the “phosphopantetheinylation of CP” value [10] of the same protein?
**A.** Its value is “APPT, AvPPT, MPPT and Sfp functionalized all substrates”.

**Q.** What about the Km [11] of the same protein?
**A.** The Km was 7.4 µM.

**Q.** And the kcat [11]?
**A.** Its kcat is 7.6 min⁻¹.

**Q.** And the kcat/Km [11]?
**A.** Its kcat/Km is 1 µM⁻¹ min⁻¹.

**Q.** What about the “phosphopantetheinylation of CP” value [11] of the same protein?
**A.** The value was “APPT, AvPPT, MPPT and Sfp functionalized all substrates”.

B2: AvPPT, Sfp-like phosphopantetheinyl transferase (PPTase) from Anabaena variabilis ATCC29413 (protein)
chain: MLQHTWLPKPPNLTLLSDEVHLWRIPLDRPESQLQHLAATLSSDELARANRFYFPEHRQRFTAGRGILRSILGLYLGVEPKQVKFEYESRGKPVLGDRFADSGLLFNLSHSQNLGLCAVNYTRQIGIDLEYLRPTSDLESLAKRFFLPREYELLRSLPDEQKQKIFFRYWTCKEAYLKATGDGIAKLEEIEIALTPTEPAKLQTTPAWSLLELVPDDNCVAAVAVAGFGWQPKFWQY
**Q.** With B2 as the protein, how does the “phosphopantetheinylation of CP” value [1] read?
**A.** Its value is “APPT, AvPPT, MPPT and Sfp functionalized all substrates”.

**Q.** What about the “phosphopantetheinylation of CP” value [2] of the same protein?
**A.** The value was “APPT, AvPPT, MPPT and Sfp functionalized all substrates”.

**Q.** What about the “phosphopantetheinylation of CP” value [3] of the same protein?
**A.** Its value is “APPT, AvPPT, MPPT and Sfp functionalized all substrates”.

**Q.** What about the “phosphopantetheinylation of CP” value [4] of the same protein?
**A.** The value was “APPT, AvPPT, MPPT and Sfp functionalized all substrates”.

**Q.** And the “phosphopantetheinylation of CP” value [5]?
**A.** Its value is “APPT, AvPPT, MPPT and Sfp functionalized all substrates”.

**Q.** What about the “phosphopantetheinylation of CP” value [6] of the same protein?
**A.** The value was “APPT, AvPPT, MPPT and Sfp functionalized all substrates”.

**Q.** And the “phosphopantetheinylation of CP” value [7]?
**A.** Its value is “APPT, AvPPT, MPPT and Sfp functionalized all substrates”.

**Q.** And the “phosphopantetheinylation of CP” value [8]?
**A.** Its value is “APPT, AvPPT, MPPT and Sfp functionalized all substrates”.

**Q.** And the “phosphopantetheinylation of CP” value [9]?
**A.** Its value is “APPT, AvPPT, MPPT and Sfp functionalized all substrates”.

**Q.** And the “phosphopantetheinylation of CP” value [10]?
**A.** Its value is “APPT, AvPPT, MPPT and Sfp functionalized all substrates”.

**Q.** What about the “phosphopantetheinylation of CP” value [11] of the same protein?
**A.** The value was “APPT, AvPPT, MPPT and Sfp functionalized all substrates”.
